Results: patent publication US20200345804A1
Where no end group is shown, it is not given here. [ ]: non-standard residue; d: D form. NMeA = CN[C@@H](C)C(=O)O

Assays:
[1] = biological target: BIR3 domain of XIAP (human, residues 253-347, N-terminal His tag) (human); assay: DELFIA displacement of AVPI-Biotin
[2] = biological target: BIR3 domain of XIAP (human, residues 253-347, N-terminal His tag) (human); assay: ITC, difference to N-Me-AVPF-NH2
[3] = biological target: BIR3 domain of XIAP (human, residues 253-347, N-terminal His tag) (human); assay: ITC
[4] = biological target: recombinant BIR3 domain of cIAP2 with N-terminal 6xHis tag (Artificial Sequence); assay: DELFIA displacement, 2-h incubation
[5] = biological target: recombinant BIR3 domain of cIAP1 with N-terminal 6xHis tag (Artificial Sequence); assay: DELFIA displacement, 2-h incubation
[6] = biological target: BIR2 domain of XIAP (Artificial Sequence); assay: DELFIA displacement assay on XIAP BIR2
[7] = biological target: BIR3 domain of XIAP (human, residues 253-347, N-terminal His tag) (human); assay: ITC, full curve titration
[8] = biological target: recombinant BIR3 domain of cIAP2 with N-terminal 6xHis tag (Artificial Sequence); assay: DELFIA displacement of AVPI-Biotin
[9] = biological target: BIR3 domain of XIAP (human, residues 253-347, N-terminal His tag) (human); assay: DELFIA displacement, 2-h incubation
[10] = biological target: recombinant BIR3 domain of cIAP1 with N-terminal 6xHis tag (Artificial Sequence); assay: DELFIA displacement of AVPI-Biotin
[11] = biological target: recombinant BIR3 domain of cIAP1 with N-terminal 6xHis tag (Artificial Sequence); assay: DELFIA displacement of AVPI-Biotin; remark: listed apart in the source
Target sequence in this assay (chain, as listed by the source limits assumed): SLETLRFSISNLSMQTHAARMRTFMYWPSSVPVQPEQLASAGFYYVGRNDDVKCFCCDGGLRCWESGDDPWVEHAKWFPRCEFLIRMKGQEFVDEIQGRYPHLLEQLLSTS

[12] = biological target: BIR3 domain of XIAP (human, residues 253-347, N-terminal His tag) (human); assay: DELFIA displacement of AVPI-Biotin; remark: listed apart in the source
Target sequence in this assay (chain, as listed by the source): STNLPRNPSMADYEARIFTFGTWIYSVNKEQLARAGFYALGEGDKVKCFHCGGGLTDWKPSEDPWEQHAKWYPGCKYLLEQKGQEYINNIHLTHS

[13] = biological target: recombinant BIR3 domain of cIAP2 with N-terminal 6xHis tag (Artificial Sequence); assay: DELFIA displacement of AVPI-Biotin; remark: listed apart in the source
Target sequence in this assay (chain, as listed by the source limits assumed): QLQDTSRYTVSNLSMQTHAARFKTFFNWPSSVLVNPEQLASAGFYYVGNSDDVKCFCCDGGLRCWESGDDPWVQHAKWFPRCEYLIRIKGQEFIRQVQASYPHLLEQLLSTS

Molecule | δ(-TΔS) [2] [kcal/mol] | δ(ΔH) [2] [kcal/mol] | -TΔS [3] [kcal/mol] | Kd [3] [nM] | ΔH [3] [kcal/mol] | further results
MeHN-A-Dap(3-FSB)-P-F-NH2 (peptide) | – | – | – | – | – | IC50 [1]: 47.3 nM
compound 6 (N-Me-Ala-P2-Pro-Phe-NH2, P2 = (3F-4CF3)Phe) (peptide) | -0.2 | -0.3 | -1.2 | 155 | -8.1 | –
compound 12 (N-Me-Ala-P2-Pro-Phe-NH2, P2 = (4-OCF3)Phe) (peptide) | -0.9 | 0.7 | -1.9 | 227 | -7.1 | –
MeHN-A-F(OSO2F)-P-F-CONH2 (peptide) | – | – | – | – | – | IC50 [4]: 343 nM
MeHN-A-Dap(p-OSO2F-Benzamide)-P-F-CONH2 (peptide) | – | – | – | – | – | IC50 [5]: 335 nM; IC50 [4]: > 1000 nM
NMe-Ala-pSFB-Dap-Pro-Phe-NH2 (peptide) | – | – | – | – | – | IC50 [6]: 2220 nM
compound 14 (N-Me-Ala-P2-Pro-Phe-NH2, P2 = (2F-4CF3-5Me)Phe) (peptide) | -2.3 | 1.4 | -3.3 | 81 | -6.4 | –
MeNH-A-hF(OSO2F)-P-F-CONH2 (peptide) | – | – | – | – | – | IC50 [5]: 26 nM; IC50 [9]: 197 nM; IC50 [4]: 188 nM
compound 5 (N-Me-Ala-P2-Pro-Phe-NH2, P2 = (3Cl-4CF3)Phe) (peptide) | 0.1 | -0.5 | -0.9 | 190 | -8.3 | –
N-Me-Ala-(p-phosphonomethyl)Phe-Pro-Phe-NH2 (peptide) | 4 | -4.4 | – | – | – | IC50 [1]: 35 nM
compound 2 (N-Me-Ala-P2-Pro-Phe-NH2, P2 = (4SO3^-)-Phe) (peptide) | 0 | -0.5 | – | – | – | IC50 [10]: 144 nM
MeHN-A-Dap(4-FSBz)-P-F-CONH2 (peptide) | – | – | – | – | – | IC50 [5]: 18.6 nM; IC50 [9]: 17.1 nM; IC50 [4]: 85.7 nM
compound 9 (N-Me-Ala-P2-Pro-Phe-NH2, P2 = Dab) (peptide) | -0.4 | 0.1 | -1.4 | 230 | -7.7 | –
Ala-pTyr-Pro-(4F)Phe-NH2 (peptide) | – | – | 3.04 | 205 | – | ΔH [7]: -12.2 kcal/mol; ΔG [3]: -9.13 kcal/mol; IC50 [10]: 124 nM; IC50 [1]: 40.1 nM; IC50 [8]: 143 nM
MeNH-A-Dap(4-VSB)P-F-CONH2 (peptide) | – | – | – | – | – | IC50 [5]: 4.3 nM; IC50 [9]: 31 nM; IC50 [4]: 1.3 nM
compound 8 (N-Me-Ala-P2-Pro-Phe-NH2, P2 = Cyclohexyl Glycine) (peptide) | -0.4 | 0 | -1.4 | 354 | -7.8 | –

The next lines start with results.

δ(-TΔS) [2] [kcal/mol] | δ(ΔH) [2] [kcal/mol] | -TΔS [3] [kcal/mol] | Kd [3] [nM] | ΔH [3] [kcal/mol] | Molecule | further results
-0.9 | 0.6 | -1.9 | 213 | -7.2 | compound 11 (N-Me-Ala-P2-Pro-Phe-NH2, P2 = Phe(4-CF3)) (peptide) | –
-0.8 | 0.4 | -1.8 | 194 | -7.4 | compound 10 (N-Me-Ala-P2-Pro-Phe-NH2, P2 = (2F-4CF3)Phe) (peptide) | –
– | – | -4 | 825 | – | AVPI (peptide) | ΔH [7]: -4.3 kcal/mol; ΔG [3]: -8.3 kcal/mol; IC50 [1]: 957 nM; IC50 [8]: 320 nM
-1.3 | 0.9 | -2.3 | 182 | -6.9 | compound 13 (N-Me-Ala-P2-Pro-Phe-NH2, P2 = (p-guanidino)Phe) (peptide) | –
-0.3 | -0.2 | -1.3 | 133 | -8 | compound 7 (N-Me-Ala-P2-Pro-Phe-NH2, P2 = (3Cl-5CF3)Phe) (peptide) | –
0.9 | -1.1 | -0.1 | 280 | -8.9 | compound 3 (N-Me-Ala-P2-Pro-Phe-NH2, P2 = (4-NO2)-Phe) (peptide) | –
– | – | -1 | – | -7.8 | [NMeA]VPF-NH2 [N-Me-AVPF-NH2] | –
– | – | – | 175 | – | AVPF | IC50 [11]: 50.9 nM; IC50 [12]: 60 nM; IC50 [13]: 168 nM; ΔH [7]: -7.64 kcal/mol
